This is an account of results in PMC6715699.

A word on the Kd: it is a measure of binding affinity in units of concentration.

In the data set the target is T1, TRF2 (UniProt Q15554).
T1 sequence: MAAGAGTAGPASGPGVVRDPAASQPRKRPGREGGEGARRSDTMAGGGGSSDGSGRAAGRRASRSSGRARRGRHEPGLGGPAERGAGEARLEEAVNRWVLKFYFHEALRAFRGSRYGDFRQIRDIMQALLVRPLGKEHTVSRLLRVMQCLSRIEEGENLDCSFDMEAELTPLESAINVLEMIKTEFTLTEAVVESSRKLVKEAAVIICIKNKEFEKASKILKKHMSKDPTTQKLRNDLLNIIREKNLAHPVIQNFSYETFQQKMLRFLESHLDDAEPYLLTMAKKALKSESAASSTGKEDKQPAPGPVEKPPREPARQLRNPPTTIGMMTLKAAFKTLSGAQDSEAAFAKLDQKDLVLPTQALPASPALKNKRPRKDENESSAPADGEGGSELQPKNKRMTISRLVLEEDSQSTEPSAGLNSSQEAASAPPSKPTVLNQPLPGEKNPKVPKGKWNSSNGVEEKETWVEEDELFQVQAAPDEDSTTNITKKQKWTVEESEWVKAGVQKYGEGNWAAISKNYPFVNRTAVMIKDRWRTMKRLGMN
Nature of the data set: MST. To be noted: 50 nM labelled DNA; MST in standard MST buffer (composition and pH not given), premium-treated capillaries, Monolith NT.115; 20 min at room temperature stated for the protein ….

In turn, “TTAGGGTTAGGGTTAGGG (double strand) [TELO (TTAGGG)3]” registered a Kd of 12.2 nM. This lies in the double-digit nanomolar range.
